Data taken from IntAct's records for PubMed 14597414.

B1: Prelamin-A/C (Homo sapiens), P02545 (parent)
chain: METPSQRRATRSGAQASSTPLSPTRITRLQEKEDLQELNDRLAVYIDRVRSLETENAGLRLRITESEEVVSREVSGIKAAYEAELGDARKTLDSVAKERARLQLELSKVREEFKELKARNTKKEGDLIAAQARLKDLEALLNSKEAALSTALSEKRTLEGELHDLRGQVAKLEAALGEAKKQLQDEMLRRVDAENRLQTMKEELDFQKNIYSEELRETKRRHETRLVEIDNGKQREFESRLADALQELRAQHEDQVEQYKKELEKTYSAKLDNARQSAERNSNLVGAAHEELQQSRIRIDSLSAQLSQLQKQLAAKEAKLRDLEDSLARERDTSRRLLAEKEREMAEMRARMQQQLDEYQELLDIKLALDMEIHAYRKLLEGEEERLRLSPSPTSQRSRGRASSHSSQTQGGGSVTKKRKLESTESRSSFSQHARTSGRVAVEEVDEEGKFVRLRNKSNEDQSMGNWQIKRQNGDDPLLTYRFPPKFTLKAGQVVTIWAAGAGATHSPPTDLVWKAQNTWGCGNSLRTALINSTGEEVAMRKLVRSVTVVEDDEDEDGDDLLHHHHGSHCSSSGDPAEYNLRSRTVLCGTCGQPADKASASGSGAQVGGPISSGSSASSVTVTRSYRSVGGSGGGSFGDNLVTRSYLLGNSSPRTQSPQNCSIM
partner: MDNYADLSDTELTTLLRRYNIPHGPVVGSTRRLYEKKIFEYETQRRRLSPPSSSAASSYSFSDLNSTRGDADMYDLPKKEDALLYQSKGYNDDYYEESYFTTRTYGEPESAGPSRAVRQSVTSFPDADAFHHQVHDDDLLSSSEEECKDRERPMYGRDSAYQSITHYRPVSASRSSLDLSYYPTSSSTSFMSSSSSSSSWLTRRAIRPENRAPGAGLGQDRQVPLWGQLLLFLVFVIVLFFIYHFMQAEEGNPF

Variants of: B1
Conditions: with emd_human EMD

Row | Variant | effect of a mutation on the interaction
1 | R482L | decreasing interaction strength
